Columns and labels:
Assay in all cases: SPR
[1] = molecular target: Cdk7(S164A)/Cyclin H binary complex (human, UniProt P50613 2-346; P51946 1-323, S164A, phosphothreonine at 170)
[2] = molecular target: Cdk7(S164E)/Cyclin H binary complex (human, UniProt P50613 2-346; P51946 1-323, S164E, phosphothreonine at 170)
[3] = molecular target: T1, doubly T-loop phosphorylated Cdk7/Cyclin H/Mat1_(230-309) ternary complex (human, UniProt P50613 2-346; P51946 1-323; P51948 230-309, phosphoserine at 164; phosphothreonine at 170 | M1 acetylated)
T1 chain 1: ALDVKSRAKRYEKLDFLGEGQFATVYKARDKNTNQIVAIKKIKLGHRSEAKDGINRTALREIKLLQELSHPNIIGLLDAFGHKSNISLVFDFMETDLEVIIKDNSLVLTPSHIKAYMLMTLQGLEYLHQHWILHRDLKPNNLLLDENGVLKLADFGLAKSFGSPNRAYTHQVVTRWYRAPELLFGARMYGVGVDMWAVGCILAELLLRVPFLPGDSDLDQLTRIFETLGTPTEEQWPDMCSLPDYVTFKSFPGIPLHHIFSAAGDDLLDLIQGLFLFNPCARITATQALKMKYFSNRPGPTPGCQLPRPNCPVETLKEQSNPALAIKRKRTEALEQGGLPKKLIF
T1 chain 2: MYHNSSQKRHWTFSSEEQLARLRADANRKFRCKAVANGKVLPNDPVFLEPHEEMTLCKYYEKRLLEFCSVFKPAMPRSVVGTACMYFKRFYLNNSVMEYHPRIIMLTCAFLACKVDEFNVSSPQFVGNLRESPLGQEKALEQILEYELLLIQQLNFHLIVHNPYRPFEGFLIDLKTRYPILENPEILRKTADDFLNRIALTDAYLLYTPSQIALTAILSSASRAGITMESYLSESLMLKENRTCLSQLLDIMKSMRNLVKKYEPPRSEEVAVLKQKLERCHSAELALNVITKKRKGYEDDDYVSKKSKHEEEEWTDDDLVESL
T1 chain 3: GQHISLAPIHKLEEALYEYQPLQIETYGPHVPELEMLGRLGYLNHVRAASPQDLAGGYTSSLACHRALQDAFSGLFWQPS

B1: MBP-Mat1_(230-309) (domain or fragment)
chain: T1 chain 3
[1]
  Kd: 10.8 nM
[2]
  Kd: 7.3 nM

B2: VHH_(RD7-04), form for biochemical studies (VHH)
VHH: QVQLVESGGGLVQPGGSLRLSCVASGFTFKNFYMGWVRQAPDKGLEWVATINSGGEIQSYADSVKGRFTISRDNAKNTLYLQMNNLRPEDTAVYYCSKQSSTPAKGQGTQVTVSS
[3]
  Kd: 0.6 nM
